Values of other authors in PMC3164694.
pKd: −log10 of the molar value.

Legend:
TIMP-2 (Homo sapiens) = TIMP-2 (Homo sapiens) (UniProt P16035)
MMP-2 (Homo sapiens) = MMP-2 (Homo sapiens) (UniProt P08253)
Sequence of MMP-2 (Homo sapiens) (P08253 110-660): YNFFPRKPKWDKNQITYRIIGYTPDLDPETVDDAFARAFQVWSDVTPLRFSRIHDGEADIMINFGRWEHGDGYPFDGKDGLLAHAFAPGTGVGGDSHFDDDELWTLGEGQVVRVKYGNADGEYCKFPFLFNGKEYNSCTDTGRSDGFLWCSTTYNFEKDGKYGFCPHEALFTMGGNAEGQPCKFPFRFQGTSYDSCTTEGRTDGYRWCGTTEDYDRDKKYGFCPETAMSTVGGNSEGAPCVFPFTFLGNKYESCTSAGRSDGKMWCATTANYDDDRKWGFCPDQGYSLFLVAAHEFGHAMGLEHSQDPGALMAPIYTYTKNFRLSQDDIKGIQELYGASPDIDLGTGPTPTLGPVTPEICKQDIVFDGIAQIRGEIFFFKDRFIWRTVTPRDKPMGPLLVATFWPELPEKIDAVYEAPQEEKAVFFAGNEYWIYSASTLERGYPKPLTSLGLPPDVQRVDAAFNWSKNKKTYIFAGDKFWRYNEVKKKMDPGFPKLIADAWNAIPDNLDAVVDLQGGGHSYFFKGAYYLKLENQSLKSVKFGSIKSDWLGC

In the case of MT1-MMP (from UniProt P50281), the pKd (TIMP-2 (Homo sapiens)) is listed as 8.60.
In the case of “MT1-MMP/TIMP-2 complex (from UniProt P50281)”, the pKd (MMP-2 (Homo sapiens)) is given as 9.25.
